In article doi:10.1101/2022.12.09.519754, “Conformational restriction shapes inhibition of a multidrug efflux adaptor protein” (bioRxiv, 2022):

T1: AcrB in SMALP (styrene maleic acid lipid particle) native nanodiscs (E. coli, UniProt P31224 1-1049)
T1 construct: AcrB, inner membrane transporter of AcrAB-TolC, E. coli; Embedded in native lipid nanodiscs; also called trimeric AcrB SMALPs; source: E. coli C43(DE3) ΔacrAB, pET15b; extracted from membranes with 2.5% SMA 2000, purified (nickel NTA, PD-10 desalting)
T1 sequence: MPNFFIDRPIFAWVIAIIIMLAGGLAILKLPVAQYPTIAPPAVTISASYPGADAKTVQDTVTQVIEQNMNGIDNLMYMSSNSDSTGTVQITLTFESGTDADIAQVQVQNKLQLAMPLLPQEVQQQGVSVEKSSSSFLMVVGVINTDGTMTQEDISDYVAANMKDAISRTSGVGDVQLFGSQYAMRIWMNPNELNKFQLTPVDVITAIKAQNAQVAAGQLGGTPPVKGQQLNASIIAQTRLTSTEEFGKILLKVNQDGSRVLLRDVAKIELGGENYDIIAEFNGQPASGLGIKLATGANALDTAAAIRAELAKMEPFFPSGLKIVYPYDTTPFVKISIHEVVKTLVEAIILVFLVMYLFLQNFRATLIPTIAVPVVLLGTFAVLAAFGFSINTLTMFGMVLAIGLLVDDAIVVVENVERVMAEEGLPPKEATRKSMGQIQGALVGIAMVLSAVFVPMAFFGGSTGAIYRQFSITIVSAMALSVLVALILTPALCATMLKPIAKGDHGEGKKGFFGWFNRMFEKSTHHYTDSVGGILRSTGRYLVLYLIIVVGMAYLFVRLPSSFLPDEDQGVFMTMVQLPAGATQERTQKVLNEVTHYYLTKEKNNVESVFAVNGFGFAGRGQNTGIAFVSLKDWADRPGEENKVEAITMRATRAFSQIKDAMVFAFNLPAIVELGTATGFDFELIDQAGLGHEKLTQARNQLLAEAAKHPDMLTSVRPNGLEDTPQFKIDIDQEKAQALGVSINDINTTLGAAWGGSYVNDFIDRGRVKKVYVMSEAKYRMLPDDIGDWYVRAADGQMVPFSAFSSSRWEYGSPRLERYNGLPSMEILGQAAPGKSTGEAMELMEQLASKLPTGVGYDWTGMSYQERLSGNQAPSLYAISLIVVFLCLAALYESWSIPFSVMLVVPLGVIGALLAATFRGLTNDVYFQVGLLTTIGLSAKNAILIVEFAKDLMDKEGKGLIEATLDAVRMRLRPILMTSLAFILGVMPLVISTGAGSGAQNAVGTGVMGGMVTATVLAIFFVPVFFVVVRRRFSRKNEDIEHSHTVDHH


Assays:
[1] = target: the molecule itself; experiment: native MS; AcrA^L in 100 mM ammonium acetate pH 6.0 with 0.03 % DDM (2 x CMC); sampling cone 120 V, trap collision energy 50-200 V
[2] = target: the molecule itself; experiment: native MS; AcrA^L in 100 mM ammonium acetate pH 7.4 with 0.03 % DDM
[3] = target: T1, AcrB in SMALP (styrene maleic acid …); experiment: native gel or EMSA; SMA-PAGE (native PAGE for SMALPs): AcrB in SMALP nanodiscs with AcrA^S or AcrA^SD; Novex Tris-glycine 4-20% gels, 25 mM Tris pH 8.8, 192 mM glycine, 150 V, 90-120 min, 4 °C, Coomassie stain; settings: both partners purified

Row | Binder | stoichiometry N [1] | stoichiometry N [2] | stoichiometry N [3]
1 | AcrA^L (lipidated AcrA, expressed from full length AcrA with its signal peptide) (natural protein, lipidated (palmitoylation) at Cys25 after cleavage of signal peptide 1-24, AcrA, periplasmic adaptor protein of AcrAB-TolC, E. coli; full length AcrA amplified from genomic DNA; signal peptide residues 1-24 are cleaved and Cys25 is lipidated, so the protein in the assay starts at Cys25; Measured in DDM micelles (0.03 % DDM, 2 x CMC); source: E. coli C43(DE3) ΔacrAB, pET28a; solubilised from membranes with 1% DDM, purified (HiTrap, SEC) in 0.03% DDM) CDDKQAQQGGQQMPAVGVVTVKTEPLQITTELPGRTSAYRIAEVRPQVSGIILKRNFKEGSDIEAGVSLYQIDPATYQATYDSAKGDLAKAQAAANIAQLTVNRYQKLLGTQYISKQEYDQALADAQQANAAVTAAKAAVETARINLAYTKVTSPISGRIGKSNVTEGALVQNGQATALATVQQLDPIYVDVTQSSNDFLRLKQELANGTLKQENGKAKVSLITSDGIKFPQDGTLEFSDVTVDQTTGSITLRAIFPNPDHTLLPGMFVRARLEEGLNPNAILVPQQGVTRTPRGDATVLVVGADDKVETRPIVASQAIGDKWLVTEGLKAGDRVVISGLQKVRPGVQVKAQEVTADNNQQAASGAQPEQSKS | 2 | ≤ 5 | 
2 | AcrA^S (soluble AcrA lacking signal peptide and lipidation, Cys25Met) (natural protein, AcrA, E. coli; lacks signal peptide residues 1-24; Cys25 replaced by a starting methionine (Met25); not lipidated; source: E. coli C43(DE3) ΔacrAB, pET28a; purified from the cytoplasmic fraction (HiTrap, SEC)) MDDKQAQQGGQQMPAVGVVTVKTEPLQITTELPGRTSAYRIAEVRPQVSGIILKRNFKEGSDIEAGVSLYQIDPATYQATYDSAKGDLAKAQAAANIAQLTVNRYQKLLGTQYISKQEYDQALADAQQANAAVTAAKAAVETARINLAYTKVTSPISGRIGKSNVTEGALVQNGQATALATVQQLDPIYVDVTQSSNDFLRLKQELANGTLKQENGKAKVSLITSDGIKFPQDGTLEFSDVTVDQTTGSITLRAIFPNPDHTLLPGMFVRARLEEGLNPNAILVPQQGVTRTPRGDATVLVVGADDKVETRPIVASQAIGDKWLVTEGLKAGDRVVISGLQKVRPGVQVKAQEVTADNNQQAASGAQPEQSKS |  |  | 1
